B1: Mitochondrial association factor 1 form b1 (Toxoplasma gondii), A0A140H546 (parent)
chain: MWRIWRCRLSFLFATGCLLGALTAGLGSQMSDSVGRNVQAPAGVADASQEAGDVVEERTERTEEQAFALGPPRRHSSESLFPRNASVTARRRRNRRIALIATAVGVAVILAAVYVLRRRRAQRPQDPEPPAPRSVEDPEVLPEEDEASSSLPPPPPPSPPPPPPVEDPLSPESQTVDLSCLSGTTVRFFGPSHHFGGFTPLYDPAPDKRVATVDAGANALFIGGGGLNGQFAKTLLEEAEKHGIRLTPEELSQHSQRIQQSLLRRAVKSPGKLVELDTGVASPVFARSFGFVPVVPGLMWEESEVGPNVGVTFVHILKPEVTPYGNLNNNVMMYTVAPSGAAPDKTYSLAYKTTIAGVIGAAAAYNDTPAGQQYPVQGLRLPLLGGGIFRRNRSLESIGRANAEGTSLAITRYGPNFELQYMYDPSNAALHGLQEAESTYLASMLD

Variants of: B1
Conditions: with RALGAPA1, Q6GYQ0-1
Chain of RALGAPA1, Q6GYQ0-1 (Q6GYQ0 whole entry): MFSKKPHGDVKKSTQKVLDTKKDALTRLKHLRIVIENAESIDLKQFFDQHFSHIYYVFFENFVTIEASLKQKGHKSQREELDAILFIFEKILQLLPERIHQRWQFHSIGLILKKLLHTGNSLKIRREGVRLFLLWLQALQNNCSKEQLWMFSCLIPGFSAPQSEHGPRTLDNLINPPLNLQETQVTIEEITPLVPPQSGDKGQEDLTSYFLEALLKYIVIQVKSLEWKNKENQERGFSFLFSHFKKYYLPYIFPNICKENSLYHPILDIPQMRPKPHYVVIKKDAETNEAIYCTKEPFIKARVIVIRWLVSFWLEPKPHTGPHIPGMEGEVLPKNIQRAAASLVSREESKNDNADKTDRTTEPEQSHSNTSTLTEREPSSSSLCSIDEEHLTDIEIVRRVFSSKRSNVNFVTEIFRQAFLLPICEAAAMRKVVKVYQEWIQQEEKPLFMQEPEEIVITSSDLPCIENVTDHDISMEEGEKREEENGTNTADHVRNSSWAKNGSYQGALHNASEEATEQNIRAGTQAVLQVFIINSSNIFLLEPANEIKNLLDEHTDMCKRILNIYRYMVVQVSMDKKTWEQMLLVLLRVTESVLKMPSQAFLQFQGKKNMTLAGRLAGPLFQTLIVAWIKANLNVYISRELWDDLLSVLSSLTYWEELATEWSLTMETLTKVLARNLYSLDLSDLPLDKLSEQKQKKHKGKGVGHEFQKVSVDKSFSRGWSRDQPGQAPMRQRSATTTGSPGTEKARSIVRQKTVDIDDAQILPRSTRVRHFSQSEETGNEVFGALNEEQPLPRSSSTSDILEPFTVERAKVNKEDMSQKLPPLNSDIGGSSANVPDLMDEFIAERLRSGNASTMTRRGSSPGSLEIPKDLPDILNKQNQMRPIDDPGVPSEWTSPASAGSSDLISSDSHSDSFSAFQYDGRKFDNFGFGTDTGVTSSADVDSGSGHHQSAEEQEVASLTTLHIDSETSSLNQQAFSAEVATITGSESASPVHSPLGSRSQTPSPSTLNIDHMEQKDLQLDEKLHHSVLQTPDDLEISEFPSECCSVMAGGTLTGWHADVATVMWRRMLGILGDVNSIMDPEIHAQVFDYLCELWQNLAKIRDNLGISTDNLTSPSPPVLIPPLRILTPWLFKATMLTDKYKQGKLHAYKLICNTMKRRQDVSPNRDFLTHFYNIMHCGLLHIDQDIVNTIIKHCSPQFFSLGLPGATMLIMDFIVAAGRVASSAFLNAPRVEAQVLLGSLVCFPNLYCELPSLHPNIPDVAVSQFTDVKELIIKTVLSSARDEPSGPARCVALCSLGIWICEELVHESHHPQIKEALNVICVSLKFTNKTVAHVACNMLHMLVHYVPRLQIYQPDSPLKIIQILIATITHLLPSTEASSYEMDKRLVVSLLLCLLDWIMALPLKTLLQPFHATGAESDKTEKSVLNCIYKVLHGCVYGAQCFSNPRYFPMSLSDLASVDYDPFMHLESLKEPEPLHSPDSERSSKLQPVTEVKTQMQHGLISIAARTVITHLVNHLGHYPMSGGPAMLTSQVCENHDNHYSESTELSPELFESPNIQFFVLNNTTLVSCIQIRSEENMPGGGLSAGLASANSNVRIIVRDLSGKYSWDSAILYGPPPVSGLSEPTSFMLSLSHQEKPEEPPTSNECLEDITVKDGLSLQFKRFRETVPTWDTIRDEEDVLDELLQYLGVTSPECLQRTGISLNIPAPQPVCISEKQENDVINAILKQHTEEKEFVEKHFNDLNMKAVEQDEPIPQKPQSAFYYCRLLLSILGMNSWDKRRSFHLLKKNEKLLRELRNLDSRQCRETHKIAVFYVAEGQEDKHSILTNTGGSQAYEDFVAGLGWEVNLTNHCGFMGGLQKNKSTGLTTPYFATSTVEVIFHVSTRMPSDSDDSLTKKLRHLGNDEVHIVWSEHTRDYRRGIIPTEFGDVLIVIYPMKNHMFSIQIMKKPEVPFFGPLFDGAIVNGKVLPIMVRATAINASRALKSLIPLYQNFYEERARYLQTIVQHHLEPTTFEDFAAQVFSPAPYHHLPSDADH

Variant | effect of a mutation on the interaction
P283R | disrupting interaction strength
V280R | disrupting interaction strength
S438R;T439K;L441K | with no effect
A281F | disrupting interaction strength
S438R;L441K | with no effect

Variants of: B1
Conditions: with RALGAPA1, Q6GYQ0-1
Remark: another data set of the same source

Variant | effect of a mutation on the interaction
S438R;T439K;L441K | decreasing interaction strength
S438R;L441K | decreasing interaction strength

— IntAct's records for PubMed 38141762
